The nature of data set [1]: SEC; each antibody alone at 100 mg/mL (second study also 50 mg/mL) in 20 mM acetate, 9% sucrose, 0.01% polysorbate 80, pH 5.2, stored at 40°C (also 25°C) up to 12 weeks; diluted 100-fold before SE-HPLC; TSKgel G3000SWxl, 0.2 M sodium phosphate pH 6.8, column at 30°C; dimer and multimer defined by …. (In general: Size exclusion chromatography separates by hydrodynamic size, large species first.)

Data set [2] deals with 3BNC117. The data set can be described thus: SEC; each antibody alone at 100 mg/mL (second study also 50 mg/mL) in 20 mM acetate, 9% sucrose, 0.01% polysorbate 80, pH 5.2, stored at 40°C (also 25°C) up to 12 weeks; diluted 100-fold before SE-HPLC; TSKgel G3000SWxl, 0.2 M sodium phosphate pH 6.8, column at 30°C; dimer and multimer defined by elution time relative to the monomer.

For data set [3], the target named is 3BNC117. The data set can be described thus: SEC; each antibody alone, stored at 30°C; data not shown.
In another data set the target is PGT121. The description is as above.

Consider PGT121, for which the “increase of the multimers' share of the SE-HPLC area against day 0 (12 weeks, 40°C)” value in data set [1] was “∼3% increase compared to day 0 at 40 °C”. As to 3BNC117, the “increase of the dimer's share of the SE-HPLC area against day 0 (12 weeks, 40°C)” value in data set [1] was “∼6% increase compared to day 0 at 40 °C”. The stoichiometry N is a count of units in the complex or per binding partner. For 3BNC117 (antibody), the rate of dimer formation at 40°C relative to PGT121 with 3BNC117 [2] is 3.5 fold. The stoichiometry N with 3BNC117 [2] and with 3BNC117 [3] was 2 throughout. In the data set with PGT121, PGT121 (antibody) gave a stoichiometry N of 2.

The record behind these values is publication PMC6269598.
